Data published in article PMC10920887, “Natural variation in BnaA9.NF-YA7 contributes to drought tolerance in Brassica napus L”.

Biological target: T1, BnaA3.ABF4 (Brassica napus, UniProt X2C209 1-395)
T1 sequence: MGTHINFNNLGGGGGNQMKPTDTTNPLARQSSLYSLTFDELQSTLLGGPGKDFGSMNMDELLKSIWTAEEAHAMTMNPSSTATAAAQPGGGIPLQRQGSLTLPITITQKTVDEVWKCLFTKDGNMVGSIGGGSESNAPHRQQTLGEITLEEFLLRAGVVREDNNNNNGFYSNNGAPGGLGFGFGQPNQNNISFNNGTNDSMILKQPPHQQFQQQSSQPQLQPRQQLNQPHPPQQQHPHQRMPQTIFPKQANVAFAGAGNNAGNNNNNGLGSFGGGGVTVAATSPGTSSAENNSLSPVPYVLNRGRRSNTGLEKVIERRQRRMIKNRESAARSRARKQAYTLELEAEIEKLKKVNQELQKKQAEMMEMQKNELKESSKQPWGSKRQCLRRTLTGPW
Assay: EMSA; not given in the material
Conditions: protein: recombinant; tags: GST (N-term, pGEX-4T-1); chain copies: 2; label: biotin

B1: BnaA9.NF-YA7 promoter ABRE probe (dsDNA)
DNA 1: ATCTGCCCGTAATCTGCTACGTGCAATCTAAACGCTT
DNA 2: AAGCGTTTAGATTGCACGTAGCAGATTACGGGCAGAT
B1: binds.
